Measurements reported in US20080182978A1, “ANTI-NGF ANTIBODIES AND METHODS USING SAME” (RINAT NEUROSCIENCE CORP, priority 2002, published 2008).

Test: Dose response of E3 on body weight in arthritic rats (Example 9)
Format: in vivo, rat
Method: The ability of E3 to produce reduction in pain in arthritic rats was further investigated by examining the dose response relationship between E3 administration and pain reduction. Rats were treated with adjuvant to induce arthritis as described above. Ten rats not injected with adjuvant were used as non-arthritic controls. Fourteen days after adjuvant injection, animals were qualified into the study based on the criteria stated above, randomized into eight groups of ten rats and tested for the intensity of their vocalization response. They were then dosed on day 14 with saline, or 0.003 mg/kg, 0.01 mg/kg, 0.03 mg/kg, 0.1 mg/kg, 0.3 mg/kg, 1 mg/kg or 5 mg/kg of E3 antibody as described above. Animals were tested for their vocalization response on days 16, 18, 20, and 24. Animals were redosed with saline or the same dose of E3 on day 18 after the vocalization testing. Animals were also weighed each day, starting at day 14. Thus, animals were dosed twice with a given dose of antibody or saline on days 14 and 18, and assessed for pain five times, on days 14, 16, 18, 20 and 24. Data are shown in Tables 20-22 and in FIGS. 20-22.
The effect of treating animals with various doses of anti-NGF antibody E3 on body weight was statistically analyzed by using two-way ANOVA to compare the results obtained pairwise between arthritic animals treated with vehicle with those treated with a given dose of antibody E3. […] At all higher dose of E3, the difference between treated and untreated arthritic animals was significant (p= or <0.0001). […]

[1] = E3 0.003 mg/kg on days 14+18, day 14
[2] = E3 0.003 mg/kg on days 14+18, day 15
[3] = E3 0.003 mg/kg on days 14+18, day 16
[4] = E3 0.003 mg/kg on days 14+18, day 17
[5] = E3 0.003 mg/kg on days 14+18, day 18
[6] = E3 0.003 mg/kg on days 14+18, day 20
[7] = E3 0.003 mg/kg on days 14+18, day 21
[8] = E3 0.003 mg/kg on days 14+18, day 23
[9] = E3 0.003 mg/kg on days 14+18, day 24
[10] = E3 0.01 mg/kg on days 14+18, day 14
[11] = E3 0.01 mg/kg on days 14+18, day 15
[12] = E3 0.01 mg/kg on days 14+18, day 16
[13] = E3 0.01 mg/kg on days 14+18, day 17
[14] = E3 0.01 mg/kg on days 14+18, day 18
[15] = E3 0.01 mg/kg on days 14+18, day 20
[16] = E3 0.01 mg/kg on days 14+18, day 21
[17] = E3 0.01 mg/kg on days 14+18, day 23
[18] = E3 0.01 mg/kg on days 14+18, day 24
[19] = E3 0.03 mg/kg on days 14+18, day 14
[20] = E3 0.03 mg/kg on days 14+18, day 15
[21] = E3 0.03 mg/kg on days 14+18, day 16
[22] = E3 0.03 mg/kg on days 14+18, day 17
[23] = E3 0.03 mg/kg on days 14+18, day 18
[24] = E3 0.03 mg/kg on days 14+18, day 20
[25] = E3 0.03 mg/kg on days 14+18, day 21
[26] = E3 0.03 mg/kg on days 14+18, day 23
[27] = E3 0.03 mg/kg on days 14+18, day 24
[28] = E3 0.1 mg/kg on days 14+18, day 14
[29] = E3 0.1 mg/kg on days 14+18, day 15

B1: E3: humanized, affinity matured anti-NGF antagonist antibody; variable regions SEQ ID NO:1 and 2; human IgG2a (A330P331 to S330S331), kappa (antibody, V domains shown)
VH: QVQLQESGPGLVKPSETLSLTCTVSGFSLIGYDLNWIRQPPGKGLEWIGIIWGDGTTDYNSAVKSRVTISKDTSKNQFSLKLSSVTAADTAVYYCARGGYWYATSYYFDYWGQGTLVTVS
VL: DIQMTQSPSSLSASVGDRVTITCRASQSISNNLNWYQQKPGKAPKLLIYYTSRFHSGVPSRFSGSGSGTDFTFTISSLQPEDIATYYCQQEHTLPYTFGQGTKLEIKRT
modifications: human IgG2a constant (A330S/P331S) and kappa constant missing
For B1, the “Body weight normalized to day 0” value (E3 0.003 mg/kg on days 14+18, day 0) was 100.00, the “Body weight normalized to day 0” value (E3 0.003 mg/kg on days 14+18, day 1) was 98.37 and the “Body weight normalized to day 0” value (E3 0.003 mg/kg on days 14+18, day 2) was 102.47. For the same molecule, the “Body weight normalized to day 0” value (E3 0.003 mg/kg on days 14+18, day 3) was 106.54, the “Body weight normalized to day 0” value (E3 0.003 mg/kg on days 14+18, day 4) was 110.09 and the “Body weight normalized to day 0” value (E3 0.003 mg/kg on days 14+18, day 7) was 121.29. The “Body weight normalized to day 0” value (E3 0.003 mg/kg on days 14+18, day 8) was 124.44, the “Body weight normalized to day 0” value (E3 0.003 mg/kg on days 14+18, day 9) was 125.91 and the “Body weight normalized to day 0” value (E3 0.003 mg/kg on days 14+18, day 10) was 123.30. The “Body weight normalized to day 0” value (E3 0.003 mg/kg on days 14+18, day 11) was 119.55, the “Body weight normalized to day 0” value [1] was 111.50 and the “Body weight normalized to day 14” value [1] was 100.00. For the same molecule, the “Body weight normalized to day 0” value [2] was 110.63, the “Body weight normalized to day 14” value [2] was 99.20 and the “Body weight normalized to day 0” value [3] was 111.08. The “Body weight normalized to day 14” value [3] was 99.58, the “Body weight normalized to day 0” value [4] was 112.06 and the “Body weight normalized to day 14” value [4] was 100.46. The “Body weight normalized to day 0” value [5] was 112.60, the “Body weight normalized to day 14” value [5] was 100.90 and the “Body weight normalized to day 0” value [6] was 114.17. For the same molecule, the “Body weight normalized to day 14” value [6] was 102.26, the “Body weight normalized to day 0” value [7] was 115.25 and the “Body weight normalized to day 14” value [7] was 103.16. For the same molecule, the “Body weight normalized to day 0” value [8] was 118.48, the “Body weight normalized to day 14” value [8] was 106.09 and the “Body weight normalized to day 0” value [9] was 118.58. For the same molecule, the “Body weight normalized to day 14” value [9] was 106.16, the “Body weight normalized to day 0” value (E3 0.01 mg/kg on days 14+18, day 0) was 100.00 and the “Body weight normalized to day 0” value (E3 0.01 mg/kg on days 14+18, day 1) was 98.86. The “Body weight normalized to day 0” value (E3 0.01 mg/kg on days 14+18, day 2) was 102.61, the “Body weight normalized to day 0” value (E3 0.01 mg/kg on days 14+18, day 3) was 106.29 and the “Body weight normalized to day 0” value (E3 0.01 mg/kg on days 14+18, day 4) was 110.61. For the same molecule, the “Body weight normalized to day 0” value (E3 0.01 mg/kg on days 14+18, day 7) was 121.59, the “Body weight normalized to day 0” value (E3 0.01 mg/kg on days 14+18, day 8) was 124.47 and the “Body weight normalized to day 0” value (E3 0.01 mg/kg on days 14+18, day 9) was 125.82. For the same molecule, the “Body weight normalized to day 0” value (E3 0.01 mg/kg on days 14+18, day 10) was 123.87, the “Body weight normalized to day 0” value (E3 0.01 mg/kg on days 14+18, day 11) was 121.20 and the “Body weight normalized to day 0” value [10] was 111.80. The “Body weight normalized to day 14” value [10] was 100.00, the “Body weight normalized to day 0” value [11] was 110.85 and the “Body weight normalized to day 14” value [11] was 99.18. For the same molecule, the “Body weight normalized to day 0” value [12] was 110.98, the “Body weight normalized to day 14” value [12] was 99.33 and the “Body weight normalized to day 0” value [13] was 111.42. For the same molecule, the “Body weight normalized to day 14” value [13] was 99.69, the “Body weight normalized to day 0” value [14] was 112.54 and the “Body weight normalized to day 14” value [14] was 100.69. The “Body weight normalized to day 0” value [15] was 114.82, the “Body weight normalized to day 14” value [15] was 102.70 and the “Body weight normalized to day 0” value [16] was 114.76. The “Body weight normalized to day 14” value [16] was 102.63, the “Body weight normalized to day 0” value [17] was 116.76 and the “Body weight normalized to day 14” value [17] was 104.41. The “Body weight normalized to day 0” value [18] was 116.56, the “Body weight normalized to day 14” value [18] was 104.23 and the “Body weight normalized to day 0” value (E3 0.03 mg/kg on days 14+18, day 0) was 100.00. For the same molecule, the “Body weight normalized to day 0” value (E3 0.03 mg/kg on days 14+18, day 1) was 98.67, the “Body weight normalized to day 0” value (E3 0.03 mg/kg on days 14+18, day 2) was 102.05 and the “Body weight normalized to day 0” value (E3 0.03 mg/kg on days 14+18, day 3) was 105.31. The “Body weight normalized to day 0” value (E3 0.03 mg/kg on days 14+18, day 4) was 109.24, the “Body weight normalized to day 0” value (E3 0.03 mg/kg on days 14+18, day 7) was 117.15 and the “Body weight normalized to day 0” value (E3 0.03 mg/kg on days 14+18, day 8) was 118.52. For the same molecule, the “Body weight normalized to day 0” value (E3 0.03 mg/kg on days 14+18, day 9) was 118.60, the “Body weight normalized to day 0” value (E3 0.03 mg/kg on days 14+18, day 10) was 115.26 and the “Body weight normalized to day 0” value (E3 0.03 mg/kg on days 14+18, day 11) was 112.94. For the same molecule, the “Body weight normalized to day 0” value [19] was 108.37, the “Body weight normalized to day 14” value [19] was 100.00 and the “Body weight normalized to day 0” value [20] was 108.68. The “Body weight normalized to day 14” value [20] was 100.34, the “Body weight normalized to day 0” value [21] was 109.21 and the “Body weight normalized to day 14” value [21] was 100.89. The “Body weight normalized to day 0” value [22] was 110.16, the “Body weight normalized to day 14” value [22] was 101.80 and the “Body weight normalized to day 0” value [23] was 111.14. The “Body weight normalized to day 14” value [23] was 102.70, the “Body weight normalized to day 0” value [24] was 113.17 and the “Body weight normalized to day 14” value [24] was 104.51. The “Body weight normalized to day 0” value [25] was 113.80, the “Body weight normalized to day 14” value [25] was 105.08 and the “Body weight normalized to day 0” value [26] was 114.93. For the same molecule, the “Body weight normalized to day 14” value [26] was 106.14, the “Body weight normalized to day 0” value [27] was 114.99 and the “Body weight normalized to day 14” value [27] was 106.23. The “Body weight normalized to day 0” value (E3 0.1 mg/kg on days 14+18, day 0) was 100.00, the “Body weight normalized to day 0” value (E3 0.1 mg/kg on days 14+18, day 1) was 99.31 and the “Body weight normalized to day 0” value (E3 0.1 mg/kg on days 14+18, day 2) was 102.87. For the same molecule, the “Body weight normalized to day 0” value (E3 0.1 mg/kg on days 14+18, day 3) was 106.26, the “Body weight normalized to day 0” value (E3 0.1 mg/kg on days 14+18, day 4) was 110.20 and the “Body weight normalized to day 0” value (E3 0.1 mg/kg on days 14+18, day 7) was 120.50. For the same molecule, the “Body weight normalized to day 0” value (E3 0.1 mg/kg on days 14+18, day 8) was 123.48, the “Body weight normalized to day 0” value (E3 0.1 mg/kg on days 14+18, day 9) was 125.46 and the “Body weight normalized to day 0” value (E3 0.1 mg/kg on days 14+18, day 10) was 123.95. For the same molecule, the “Body weight normalized to day 0” value (E3 0.1 mg/kg on days 14+18, day 11) was 121.98, the “Body weight normalized to day 0” value [28] was 113.90 and the “Body weight normalized to day 14” value [28] was 100.00. The “Body weight normalized to day 0” value [29] was 113.66, the “Body weight normalized to day 14” value [29] was 99.83 and the “Body weight normalized to day 0” value (E3 0.1 mg/kg on days 14+18, day 16) was 115.06.
